Data published in the supplement of paper PMC9876800.

Tested on: peptide library, one residue held at a place counted from the S/T acceptor
Assay: relative phosphorylation of the sub-library (ratio to the mean residue at this position); higher = residue favoured
Procedure, shortened: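 Relative sub-library phosphorylation, a ratio to the mean residue at that position, was obtained by phosphorimaging and densitometry of spots on streptavidin membranes. Before capture, purified recombinant kinases were incubated for 90 min under kinase-specific conditions with 50 μM biotinylated degenerate peptide sub-libraries and 50 μM ATP spiked with γ-32P-ATP. Each sub-library fixed one residue at one position around a central Ser/Thr.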

RPS6KB2, construct: Full length, human, sequence (Q9UBS0 whole entry, looked up): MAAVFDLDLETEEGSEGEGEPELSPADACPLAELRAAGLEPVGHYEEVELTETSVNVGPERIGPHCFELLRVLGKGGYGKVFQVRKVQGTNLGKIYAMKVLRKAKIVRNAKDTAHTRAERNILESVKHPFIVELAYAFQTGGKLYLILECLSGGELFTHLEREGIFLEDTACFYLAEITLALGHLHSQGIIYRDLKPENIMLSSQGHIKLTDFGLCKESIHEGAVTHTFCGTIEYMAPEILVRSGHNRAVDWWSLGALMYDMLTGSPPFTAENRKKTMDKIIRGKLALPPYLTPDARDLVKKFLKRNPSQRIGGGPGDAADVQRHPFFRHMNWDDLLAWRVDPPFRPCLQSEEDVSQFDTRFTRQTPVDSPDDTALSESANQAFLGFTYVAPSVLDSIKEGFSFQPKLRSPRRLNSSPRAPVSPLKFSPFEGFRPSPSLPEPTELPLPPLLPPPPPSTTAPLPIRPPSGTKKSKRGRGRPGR

RPS6KB2, construct: Full length, human (from UniProt Q9UBS0)
relative phosphorylation
Conditions | at +1 | at +2 | at +3 | at +4 | at -1 | at -2 | at -3 | at -4 | at -5
A fixed | 0.79 | 1.22 | 1.17 | 1 | 0.797 | 0.703 | 0.597 | 0.963 | 0.777
D fixed | 0.72 | 0.659 | 0.823 | 1.07 | 1.08 | 0.468 | 0.415 | 0.699 | 0.634
E fixed | 1.07 | 0.594 | 0.891 | 0.933 | 0.764 | 0.467 | 0.386 | 0.709 | 0.569
F fixed | 1.32 | 0.706 | 0.912 | 0.863 | 0.822 | 0.626 | 0.459 | 0.705 | 0.611
G fixed | 0.854 | 1.27 | 1.14 | 1.2 | 0.76 | 0.701 | 0.554 | 1.07 | 0.961
H fixed | 0.971 | 1.58 | 1.18 | 1.17 | 1.01 | 1.11 | 0.903 | 1.05 | 1
I fixed | 1.22 | 0.745 | 0.82 | 0.733 | 0.734 | 0.552 | 0.421 | 0.737 | 0.571
K fixed | 0.989 | 1.09 | 1.08 | 1.19 | 1.63 | 2.59 | 2.04 | 1.97 | 2.19
L fixed | 0.979 | 0.781 | 0.897 | 0.774 | 0.835 | 0.866 | 0.475 | 0.647 | 0.584
M fixed | 1.11 | 0.961 | 0.869 | 0.849 | 0.903 | 0.702 | 0.453 | 0.77 | 0.566
N fixed | 1.06 | 1.51 | 1.06 | 1.03 | 1.59 | 0.803 | 0.625 | 0.938 | 0.784
P fixed | 0.614 | 0.914 | 1.05 | 1.25 | 0.931 | 0.548 | 0.55 | 0.937 | 0.834
Q fixed | 1.13 | 1.02 | 1.17 | 1.1 | 1.03 | 0.882 | 0.731 | 1.08 | 0.945
R fixed | 0.954 | 1.52 | 1.01 | 0.973 | 1.44 | 3.95 | 6.7 | 2.31 | 3.84
V fixed | 1.09 | 0.88 | 0.849 | 0.747 | 0.855 | 0.58 | 0.425 | 0.794 | 0.607
W fixed | 0.979 | 0.776 | 1.1 | 1.16 | 0.774 | 0.674 | 0.697 | 0.828 | 0.734
Y fixed | 1.15 | 0.778 | 0.98 | 0.952 | 1.03 | 0.772 | 0.573 | 0.789 | 0.789
pThr fixed | 1.17 | 0.868 | 0.923 | 1.34 | 0.624 | 0.484 | 0.446 | 0.703 | 0.596
pTyr fixed | 1.39 | 0.96 | 1.2 | 1.32 | 1.8 | 0.552 | 0.473 | 0.767 | 0.779
